The text below walks through data of PMC7695343.

This experiment has as its target integrin αvβ5 on human colon adenocarcinoma HT-29 cells (human (endogenous in HT-29)) (UniProt P06756).
Sequence of UniProt P06756 (P06756 31-1048, chain 1 of 2): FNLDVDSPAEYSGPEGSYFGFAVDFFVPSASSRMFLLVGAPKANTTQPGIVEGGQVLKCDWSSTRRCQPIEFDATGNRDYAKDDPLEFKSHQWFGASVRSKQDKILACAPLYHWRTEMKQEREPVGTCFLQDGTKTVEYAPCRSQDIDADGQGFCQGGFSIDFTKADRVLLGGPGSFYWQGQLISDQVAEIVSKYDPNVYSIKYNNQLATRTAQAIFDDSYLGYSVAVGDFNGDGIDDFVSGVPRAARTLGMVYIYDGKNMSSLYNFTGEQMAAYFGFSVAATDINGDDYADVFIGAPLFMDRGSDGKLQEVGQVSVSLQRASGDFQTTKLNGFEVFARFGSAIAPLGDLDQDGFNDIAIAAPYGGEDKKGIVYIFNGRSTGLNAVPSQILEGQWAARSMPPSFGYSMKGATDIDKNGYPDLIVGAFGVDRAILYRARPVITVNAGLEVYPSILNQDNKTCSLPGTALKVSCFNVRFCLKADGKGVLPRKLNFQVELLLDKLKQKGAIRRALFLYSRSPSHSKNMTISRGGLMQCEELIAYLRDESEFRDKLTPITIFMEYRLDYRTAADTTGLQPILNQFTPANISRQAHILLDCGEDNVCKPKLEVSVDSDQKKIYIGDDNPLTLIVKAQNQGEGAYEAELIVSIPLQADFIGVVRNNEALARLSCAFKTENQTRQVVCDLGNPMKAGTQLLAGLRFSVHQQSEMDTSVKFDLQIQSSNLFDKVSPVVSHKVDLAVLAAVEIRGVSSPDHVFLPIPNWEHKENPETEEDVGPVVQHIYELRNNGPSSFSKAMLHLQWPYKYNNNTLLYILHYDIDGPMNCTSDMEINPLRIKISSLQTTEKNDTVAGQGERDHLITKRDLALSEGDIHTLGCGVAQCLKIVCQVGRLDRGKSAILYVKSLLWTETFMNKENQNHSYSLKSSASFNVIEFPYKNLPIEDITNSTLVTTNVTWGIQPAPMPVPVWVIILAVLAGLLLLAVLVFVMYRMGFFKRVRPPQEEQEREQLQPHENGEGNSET
Sequence of UniProt P06756 (P18084 24-799, chain 2 of 2, further chain): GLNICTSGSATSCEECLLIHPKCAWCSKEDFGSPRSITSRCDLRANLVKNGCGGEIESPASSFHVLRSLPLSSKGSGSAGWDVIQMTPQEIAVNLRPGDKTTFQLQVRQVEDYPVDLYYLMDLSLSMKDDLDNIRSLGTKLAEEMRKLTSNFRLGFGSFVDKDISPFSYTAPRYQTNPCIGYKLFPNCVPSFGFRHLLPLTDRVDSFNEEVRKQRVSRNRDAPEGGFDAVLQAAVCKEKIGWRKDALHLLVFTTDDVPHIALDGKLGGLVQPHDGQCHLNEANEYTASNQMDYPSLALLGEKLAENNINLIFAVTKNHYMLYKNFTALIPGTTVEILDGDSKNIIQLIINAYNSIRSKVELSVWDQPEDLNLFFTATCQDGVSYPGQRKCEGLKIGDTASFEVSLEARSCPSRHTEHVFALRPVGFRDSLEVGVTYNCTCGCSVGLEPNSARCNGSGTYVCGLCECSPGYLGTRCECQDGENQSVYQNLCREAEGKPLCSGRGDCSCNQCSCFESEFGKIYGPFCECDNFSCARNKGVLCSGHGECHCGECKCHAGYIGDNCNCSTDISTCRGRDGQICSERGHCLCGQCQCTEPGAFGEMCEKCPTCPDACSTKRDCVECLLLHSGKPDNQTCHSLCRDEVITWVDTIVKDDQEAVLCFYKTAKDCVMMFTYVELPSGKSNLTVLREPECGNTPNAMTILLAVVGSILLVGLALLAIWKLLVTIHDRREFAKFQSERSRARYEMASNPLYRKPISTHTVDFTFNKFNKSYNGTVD

In turn, “Echistatin (Ech), recombinant wild type with 6xHis-tag (natural protein)” came in with an IC50 of inhibition of HT29 cell adhesion to immobilized vitronectin (blocks αvβ5 with vitronectin) of 286 nM.
